According to PMC6030205, “The REN4 rheostat dynamically coordinates the apical and lateral domains of Arabidopsis pollen tubes” (Nature Communications, 2018):

Target: T1, MBP-REN4 (Arabidopsis, UniProt O48716 1-465)
T1 construct: REN4, Arabidopsis, AT2G26490; full length REN4 CDS with stop codon (465 aa) in pDest-566; CDS with stop codon in pDest-566 (Addgene) implies an N-terminal MBP; that vector may also add a His6 tag (surmise); also called REN4 fused with MBP; source: E. coli, purified (amylose beads)
T1 sequence (looked up): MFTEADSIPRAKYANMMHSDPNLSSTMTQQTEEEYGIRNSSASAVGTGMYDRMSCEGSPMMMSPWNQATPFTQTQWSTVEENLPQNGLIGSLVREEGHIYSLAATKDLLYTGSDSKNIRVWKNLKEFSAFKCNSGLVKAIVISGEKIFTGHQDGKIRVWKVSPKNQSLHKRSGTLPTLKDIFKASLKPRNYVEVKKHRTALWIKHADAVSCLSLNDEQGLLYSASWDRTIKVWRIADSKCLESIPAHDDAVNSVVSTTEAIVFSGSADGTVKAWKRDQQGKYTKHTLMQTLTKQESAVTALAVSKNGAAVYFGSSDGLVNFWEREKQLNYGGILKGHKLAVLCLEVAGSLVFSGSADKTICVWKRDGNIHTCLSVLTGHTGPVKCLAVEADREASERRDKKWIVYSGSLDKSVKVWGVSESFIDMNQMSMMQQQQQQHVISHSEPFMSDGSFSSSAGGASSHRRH
Test: pull-down; MBP-REN4 on amylose agarose beads; about 1 ug GST-ROP1 preloaded with 1 mM GTP or GDP; binding buffer 50 mM Tris-HCl pH 7.5, 10 mM MgCl2, 1 mM DTT, 10 mg/ml BSA, 5 mM EDTA; 4 C, 1 h; washes with 1% Triton X-100; anti-GST and anti-MBP blots
Settings: both partners purified

B1: GST-CA-ROP1 (G15V), GTP-bound constitutively active form of ROP1 (natural protein)
chain: not shown
notes: ROP1, Arabidopsis; full length ROP1 CDS with stop codon, mutated G15V, in pDest15; Incubated with 1 mM GTP before the pull-down; source: E. coli, purified (glutathione-agarose); not shown: GST, N-terminal, kept
binding result: binds
